Results as given in patent US20080014191A1.

Tests used:
[1] = biological target: wild-type cystic fibrosis transmembrane conductance regulator (CFTR) (Homo sapiens (Human)) (UniProt P13569); assay: CFTR co-IP, MudPIT MS; Calu-3 cells
[2] = biological target: wild-type cystic fibrosis transmembrane conductance regulator (CFTR) (Homo sapiens (Human)) (UniProt P13569); assay: CFTR co-IP, MudPIT MS; HT29 cells
[3] = biological target: wild-type cystic fibrosis transmembrane conductance regulator (CFTR) (Homo sapiens (Human)) (UniProt P13569); assay: CFTR co-IP, MudPIT MS; BHK wt, Calu-3, HT29, T84
[4] = biological target: ΔF508 CFTR (Homo sapiens (Human)) (UniProt P13569); assay: CFTR co-IP, MudPIT MS; ΔF508
ΔF508 CFTR (Homo sapiens (Human)), sequence (P13569 other isoform, or with tags, fused parts or gaps mutant limits assumed): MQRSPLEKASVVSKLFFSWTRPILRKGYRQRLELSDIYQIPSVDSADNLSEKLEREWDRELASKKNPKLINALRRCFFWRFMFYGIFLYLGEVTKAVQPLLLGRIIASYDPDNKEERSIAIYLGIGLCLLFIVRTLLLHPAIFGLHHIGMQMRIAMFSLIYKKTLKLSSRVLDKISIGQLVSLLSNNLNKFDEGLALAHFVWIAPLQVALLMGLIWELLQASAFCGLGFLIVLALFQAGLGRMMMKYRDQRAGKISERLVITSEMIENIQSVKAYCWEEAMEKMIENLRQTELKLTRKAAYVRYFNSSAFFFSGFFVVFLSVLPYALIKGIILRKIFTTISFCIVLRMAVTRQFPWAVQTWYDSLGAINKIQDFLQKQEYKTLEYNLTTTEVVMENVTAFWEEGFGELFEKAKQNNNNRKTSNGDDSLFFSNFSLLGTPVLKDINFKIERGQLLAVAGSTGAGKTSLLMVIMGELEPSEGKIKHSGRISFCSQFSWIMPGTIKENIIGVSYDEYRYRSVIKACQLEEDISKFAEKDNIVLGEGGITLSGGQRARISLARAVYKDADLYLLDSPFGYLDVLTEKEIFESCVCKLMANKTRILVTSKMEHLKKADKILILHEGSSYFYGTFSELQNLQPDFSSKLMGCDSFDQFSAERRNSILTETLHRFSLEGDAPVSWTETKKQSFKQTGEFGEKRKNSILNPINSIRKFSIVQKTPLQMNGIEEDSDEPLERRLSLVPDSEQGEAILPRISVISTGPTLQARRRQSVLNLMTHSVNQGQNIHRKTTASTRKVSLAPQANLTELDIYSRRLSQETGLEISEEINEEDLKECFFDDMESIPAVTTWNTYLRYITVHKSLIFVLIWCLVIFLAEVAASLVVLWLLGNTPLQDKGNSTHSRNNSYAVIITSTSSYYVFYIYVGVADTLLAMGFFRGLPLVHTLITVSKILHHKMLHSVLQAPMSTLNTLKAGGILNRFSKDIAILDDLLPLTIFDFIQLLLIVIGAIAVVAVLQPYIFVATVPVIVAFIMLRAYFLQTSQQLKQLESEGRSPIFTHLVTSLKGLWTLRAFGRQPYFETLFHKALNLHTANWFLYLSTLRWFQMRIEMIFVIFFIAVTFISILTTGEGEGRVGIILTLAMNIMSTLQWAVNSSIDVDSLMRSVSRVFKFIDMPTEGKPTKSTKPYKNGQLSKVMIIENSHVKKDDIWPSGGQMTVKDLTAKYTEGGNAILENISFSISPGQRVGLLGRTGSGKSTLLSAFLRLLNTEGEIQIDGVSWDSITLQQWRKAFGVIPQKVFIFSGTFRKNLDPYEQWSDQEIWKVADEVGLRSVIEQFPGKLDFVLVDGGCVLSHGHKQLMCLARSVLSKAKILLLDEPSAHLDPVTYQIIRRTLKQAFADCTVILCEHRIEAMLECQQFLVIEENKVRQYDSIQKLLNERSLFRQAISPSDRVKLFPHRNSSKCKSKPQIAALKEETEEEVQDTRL

[5] = biological target: ΔF508 CFTR (Homo sapiens (Human)) (UniProt P13569); assay: CFTR co-IP and Hsp90 immunoblot; HEK293 ΔF508 cells, ~60% knock-down of Aha1
[6] = biological target: wild-type cystic fibrosis transmembrane conductance regulator (CFTR) (Homo sapiens (Human)) (UniProt P13569); assay: CFTR co-IP, MudPIT MS; BHK cells

wild-type cystic fibrosis transmembrane conductance regulator (CFTR) (Homo sapiens (Human)), sequence (P13569 whole entry): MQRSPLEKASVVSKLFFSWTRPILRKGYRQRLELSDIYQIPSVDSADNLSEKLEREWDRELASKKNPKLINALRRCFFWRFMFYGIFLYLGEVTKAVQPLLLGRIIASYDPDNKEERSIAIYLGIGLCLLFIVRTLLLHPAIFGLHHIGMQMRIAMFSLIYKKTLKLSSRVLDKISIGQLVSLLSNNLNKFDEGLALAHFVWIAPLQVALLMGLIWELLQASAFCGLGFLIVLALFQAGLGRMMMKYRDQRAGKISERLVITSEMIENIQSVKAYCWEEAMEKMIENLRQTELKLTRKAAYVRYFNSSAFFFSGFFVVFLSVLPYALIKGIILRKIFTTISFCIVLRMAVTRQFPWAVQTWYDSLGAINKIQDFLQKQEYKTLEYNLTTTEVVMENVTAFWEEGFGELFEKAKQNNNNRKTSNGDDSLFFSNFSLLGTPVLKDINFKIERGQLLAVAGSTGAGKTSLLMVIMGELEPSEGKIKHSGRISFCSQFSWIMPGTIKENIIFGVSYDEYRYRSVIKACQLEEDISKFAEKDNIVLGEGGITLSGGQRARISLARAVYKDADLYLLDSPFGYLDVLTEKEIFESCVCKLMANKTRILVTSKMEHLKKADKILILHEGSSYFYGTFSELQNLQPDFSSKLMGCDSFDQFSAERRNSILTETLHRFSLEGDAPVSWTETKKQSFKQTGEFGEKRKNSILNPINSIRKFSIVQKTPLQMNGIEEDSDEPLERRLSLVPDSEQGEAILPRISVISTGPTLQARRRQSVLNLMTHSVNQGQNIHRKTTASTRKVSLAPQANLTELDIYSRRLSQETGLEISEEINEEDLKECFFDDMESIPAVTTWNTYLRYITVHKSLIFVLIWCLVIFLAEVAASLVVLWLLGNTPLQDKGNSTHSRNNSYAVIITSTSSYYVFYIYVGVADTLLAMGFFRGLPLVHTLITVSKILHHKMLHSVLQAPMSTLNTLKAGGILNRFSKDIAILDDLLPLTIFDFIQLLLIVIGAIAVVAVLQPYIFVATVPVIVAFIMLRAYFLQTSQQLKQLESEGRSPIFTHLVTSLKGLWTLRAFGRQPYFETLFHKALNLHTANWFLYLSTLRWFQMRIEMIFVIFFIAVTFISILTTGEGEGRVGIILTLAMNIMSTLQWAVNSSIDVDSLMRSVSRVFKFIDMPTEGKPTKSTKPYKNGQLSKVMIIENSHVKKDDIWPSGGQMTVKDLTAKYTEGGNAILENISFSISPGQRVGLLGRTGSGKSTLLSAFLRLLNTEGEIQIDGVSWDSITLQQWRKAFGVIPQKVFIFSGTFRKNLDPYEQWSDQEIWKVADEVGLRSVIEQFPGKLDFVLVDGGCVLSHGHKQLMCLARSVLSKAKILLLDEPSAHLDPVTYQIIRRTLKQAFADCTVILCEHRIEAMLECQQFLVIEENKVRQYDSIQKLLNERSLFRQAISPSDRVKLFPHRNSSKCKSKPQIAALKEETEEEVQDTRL

Row | Substance | % sequence coverage [3] [%] | total peptide spectra [3] [spectra] | unique peptide spectra [3] [spectra] | % sequence coverage [4] [%] | total peptide spectra [4] [spectra] | unique peptide spectra [4] [spectra] | other results
1 | NHERF-2 (from UniProt Q15599 1-337) | – | – | – | – | – | – | % sequence coverage [1]: 14%; total peptide spectra [1]: 5 spectra; unique peptide spectra [1]: 4 spectra; % sequence coverage [2]: 20%; total peptide spectra [2]: 10 spectra; unique peptide spectra [2]: 7 spectra
2 | proteasome 26S, non-ATPase, 2 (from UniProt Q13200 1-908) | 4 | 2 | 2 | 13 | 8 | 7 | –
3 | THR interactor 12 (from UniProt Q14669 2-1992) | 2 | 2 | 2 | – | – | – | –
4 | Sec61, alpha subunit 2 (from UniProt Q9H9S3 1-476) | 11 | 2 | 2 | – | – | – | –
5 | VCP/p97/Cdc48 (from UniProt P55072 2-806) | 7 | 2 | 2 | 25 | 14 | 10 | –
6 | Hsp90 | – | – | – | – | – | – | decrease of bound Hsp90 (ratio of Hsp90 to CFTR in the immunoprecipitate) after Aha1 dsRNA against scrambled control [5]: 50 to 60%
7 | ubiquitin specific protease 9 (from UniProt Q93008 1-2554) (enzyme) | 1 | 3 | 2 | – | – | – | –
8 | proteasome, beta type 1 (from UniProt O09061 28-240) | – | – | – | 23 | 3 | 3 | –
9 | NHERF-1 (from UniProt O14745 2-358) | – | – | – | – | – | – | % sequence coverage [2]: 11%; total peptide spectra [2]: 2 spectra; unique peptide spectra [2]: 2 spectra; % sequence coverage [6]: 20%; total peptide spectra [6]: 6 spectra; unique peptide spectra [6]: 5 spectra
10 | proteasome 26S, non-ATPase, 11 (from UniProt O00231 2-422) | – | – | – | 5 | 2 | 2 | –
11 | proteasome, alpha type 2 (from UniProt P49722 2-234) | – | – | – | 17 | 5 | 2 | –

More lines, main results first:

Row | % sequence coverage [3] [%] | total peptide spectra [3] [spectra] | unique peptide spectra [3] [spectra] | % sequence coverage [4] [%] | total peptide spectra [4] [spectra] | unique peptide spectra [4] [spectra] | Substance | other results
12 | 6 | 2 | 2 | – | – | – | ubiquitin protein ligase E3A (from UniProt Q05086 1-875) (enzyme) | –
13 | 11 | 7 | 4 | – | – | – | Sec61 alpha subunit isoform 1 (from UniProt P61619 1-476) | –
14 | – | – | – | 23 | 3 | 3 | proteasome, alpha type 5 (from UniProt Q9Z2U1 1-241) | –
15 | – | – | – | 16 | 2 | 2 | proteasome, beta type, 4 (from UniProt P28070 46-264) | –
